Data as given in patent US20130005646A1 (Novo Nordisk, published 2013).
Starred links: 1 amine or outer side, 2 acyl side, 3 side chain; linkers in the order of their positions; H or OH if unused. Positions of bridges follow the written chain, without caps; N, C: chain ends. *: point of attachment. C20 diacid = O=C(O)CCCCCCCCCCCCCCCCCCC(=O)*; C18 diacid = O=C(O)CCCCCCCCCCCCCCCCC(=O)*; γGlu = O=C(O)[C@H](CCC(=O)[*:2])N[*:1]

T1: human amylin 3(a) receptor (human calcitonin receptor + RAMP-3) (human, UniProt P30988 25-474; O60896 24-148)
T1 sequence (looked up) 1: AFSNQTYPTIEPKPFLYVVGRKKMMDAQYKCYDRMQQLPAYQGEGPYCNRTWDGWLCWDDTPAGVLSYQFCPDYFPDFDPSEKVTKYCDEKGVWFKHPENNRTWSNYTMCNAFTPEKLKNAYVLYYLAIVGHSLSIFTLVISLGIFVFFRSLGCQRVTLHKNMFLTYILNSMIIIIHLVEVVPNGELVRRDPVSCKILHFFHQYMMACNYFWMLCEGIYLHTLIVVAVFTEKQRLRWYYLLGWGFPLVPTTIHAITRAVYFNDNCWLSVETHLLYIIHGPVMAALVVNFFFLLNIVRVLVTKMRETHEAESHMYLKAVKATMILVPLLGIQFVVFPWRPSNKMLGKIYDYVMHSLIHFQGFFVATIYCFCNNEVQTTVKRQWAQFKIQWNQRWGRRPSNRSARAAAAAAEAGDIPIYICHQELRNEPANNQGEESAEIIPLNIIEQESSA
T1 sequence (looked up) 2: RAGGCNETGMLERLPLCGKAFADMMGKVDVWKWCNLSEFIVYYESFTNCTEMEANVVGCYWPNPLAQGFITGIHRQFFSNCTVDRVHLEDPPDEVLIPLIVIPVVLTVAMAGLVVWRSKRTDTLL

T2: rat calcitonin (a) receptor (rat, UniProt P32214 25-516)
T2 sequence (looked up): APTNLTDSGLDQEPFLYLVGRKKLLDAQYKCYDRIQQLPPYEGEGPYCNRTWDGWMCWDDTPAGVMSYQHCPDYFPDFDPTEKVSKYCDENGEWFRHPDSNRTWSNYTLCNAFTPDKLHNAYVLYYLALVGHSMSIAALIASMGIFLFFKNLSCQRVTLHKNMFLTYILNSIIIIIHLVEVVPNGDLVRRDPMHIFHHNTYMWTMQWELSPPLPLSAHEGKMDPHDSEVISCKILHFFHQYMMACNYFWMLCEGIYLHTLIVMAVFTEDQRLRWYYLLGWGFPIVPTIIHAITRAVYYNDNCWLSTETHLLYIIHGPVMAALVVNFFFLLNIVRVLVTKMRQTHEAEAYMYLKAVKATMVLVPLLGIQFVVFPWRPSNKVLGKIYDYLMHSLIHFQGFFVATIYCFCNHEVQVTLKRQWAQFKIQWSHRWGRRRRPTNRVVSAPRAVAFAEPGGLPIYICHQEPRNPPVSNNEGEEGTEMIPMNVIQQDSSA

T3: rat amylin 3(a) receptor (rat calcitonin(a) receptor + rat RAMP3) (rat, UniProt P32214 25-516; Q9JJ73 23-147)
T3 sequence (looked up) 1: T2 sequence (looked up)
T3 sequence (looked up) 2: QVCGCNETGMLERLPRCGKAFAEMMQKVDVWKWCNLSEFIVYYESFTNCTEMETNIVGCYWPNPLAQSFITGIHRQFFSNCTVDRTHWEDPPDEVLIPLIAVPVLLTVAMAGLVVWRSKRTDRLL

T4: human calcitonin (a) receptor (human, UniProt P30988 25-474)
T4 sequence (looked up): T1 sequence (looked up) 1

B1: N-alpha-[(S)-4-Carboxy-4-(19-carboxynonadecanoylamino)butyryl]-Glu-[Glu14,Arg17,His35]-pramlintide (peptide)
peptide: {C20 diacid-γGlu}-EKCNTATCATQRLAEFLRHSSNNFGPILPPTNVGSHTY-NH2
modifications: disulfide 3-8
SMILES: CC[C@H](C)[C@H](NC(=O)[C@@H]1CCCN1C(=O)CNC(=O)[C@H](Cc1ccccc1)NC(=O)[C@H](CC(N)=O)NC(=O)[C@H](CC(N)=O)NC(=O)[C@H](CO)NC(=O)[C@H](CO)NC(=O)[C@H](Cc1c[nH]cn1)NC(=O)[C@H](CCCNC(=N)N)NC(=O)[C@H](CC(C)C)NC(=O)[C@H](Cc1ccccc1)NC(=O)[C@H](CCC(=O)O)NC(=O)[C@H](C)NC(=O)[C@H](CC(C)C)NC(=O)[C@H](CCCNC(=N)N)NC(=O)[C@H](CCC(N)=O)NC(=O)[C@@H](NC(=O)[C@H](C)NC(=O)[C@@H]1CSSC[C@H](NC(=O)[C@H](CCCCN)NC(=O)[C@H](CCC(=O)O)NC(=O)CC[C@H](NC(=O)CCCCCCCCCCCCCCCCCCC(=O)O)C(=O)O)C(=O)N[C@@H](CC(N)=O)C(=O)N[C@@H]([C@@H](C)O)C(=O)N[C@@H](C)C(=O)N[C@@H]([C@@H](C)O)C(=O)N1)[C@@H](C)O)C(=O)N[C@@H](CC(C)C)C(=O)N1CCC[C@H]1C(=O)N1CCC[C@H]1C(=O)N[C@H](C(=O)N[C@@H](CC(N)=O)C(=O)N[C@H](C(=O)NCC(=O)N[C@@H](CO)C(=O)N[C@@H](Cc1c[nH]cn1)C(=O)N[C@H](C(=O)N[C@@H](Cc1ccc(O)cc1)C(N)=O)[C@@H](C)O)C(C)C)[C@@H](C)O
B2: N-alpha-[(S)-4-Carboxy-4-(19-carboxynonadecanoylamino)butyryl]-[Glu14,His17,Pro37]-pramlintide (peptide)
peptide: {C20 diacid-γGlu}-KCNTATCATQRLAEFLHHSSNNFGPILPPTNVGSNTP-NH2
modifications: disulfide 2-7; not fully specified; printed as N-alpha-[(S)-4-Carboxy-4-(19-carboxynonadecanoylamino)butyryl]-[Glu14,His17,Pro37]-pramlintide
B3: N-alpha-[(S)-4-Carboxy-4-(19-carboxynonadecanoylamino)butyryl]-[Glu14,Arg17,His35]-pramlintide (peptide)
peptide: {C20 diacid-γGlu}-KCNTATCATQRLAEFLRHSSNNFGPILPPTNVGSHTY-NH2
modifications: disulfide 2-7
SMILES: CC[C@H](C)[C@H](NC(=O)[C@@H]1CCCN1C(=O)CNC(=O)[C@H](Cc1ccccc1)NC(=O)[C@H](CC(N)=O)NC(=O)[C@H](CC(N)=O)NC(=O)[C@H](CO)NC(=O)[C@H](CO)NC(=O)[C@H](Cc1c[nH]cn1)NC(=O)[C@H](CCCNC(=N)N)NC(=O)[C@H](CC(C)C)NC(=O)[C@H](Cc1ccccc1)NC(=O)[C@H](CCC(=O)O)NC(=O)[C@H](C)NC(=O)[C@H](CC(C)C)NC(=O)[C@H](CCCNC(=N)N)NC(=O)[C@H](CCC(N)=O)NC(=O)[C@@H](NC(=O)[C@H](C)NC(=O)[C@@H]1CSSC[C@H](NC(=O)[C@H](CCCCN)NC(=O)CC[C@H](NC(=O)CCCCCCCCCCCCCCCCCCC(=O)O)C(=O)O)C(=O)N[C@@H](CC(N)=O)C(=O)N[C@@H]([C@@H](C)O)C(=O)N[C@@H](C)C(=O)N[C@@H]([C@@H](C)O)C(=O)N1)[C@@H](C)O)C(=O)N[C@@H](CC(C)C)C(=O)N1CCC[C@H]1C(=O)N1CCC[C@H]1C(=O)N[C@H](C(=O)N[C@@H](CC(N)=O)C(=O)N[C@H](C(=O)NCC(=O)N[C@@H](CO)C(=O)N[C@@H](Cc1c[nH]cn1)C(=O)N[C@H](C(=O)N[C@@H](Cc1ccc(O)cc1)C(N)=O)[C@@H](C)O)C(C)C)[C@@H](C)O
B4: N-alpha-[(S)-4-Carboxy-4-(17-carboxyheptadecanoylamino)butyryl]-[Glu14,His17]-pramlintide (peptide)
peptide: {C18 diacid-γGlu}-KCNTATCATQRLAEFLHHSSNNFGPILPPTNVGSNTY-NH2
modifications: disulfide 2-7; not fully specified; printed as N-alpha-[(S)-4-Carboxy-4-(17-carboxyheptadecanoylamino)butyryl]-[Glu14,His17]-pramlintide
B5: N-alpha-[(S)-4-Carboxy-4-(19-carboxynonadecanoylamino)butyryl]-Glu-[Glu14,His17,His35]-pramlintide (peptide)
peptide: {C20 diacid-γGlu}-EKCNTATCATQRLAEFLHHSSNNFGPILPPTNVGSHTY-NH2
modifications: disulfide 3-8; not fully specified; printed as N-alpha-[(S)-4-Carboxy-4-(19-carboxynonadecanoylamino)butyryl]-Glu-[Glu14,His17,His35]-pramlintide
B6: N-alpha-[(S)-4-Carboxy-4-(17-carboxyheptadecanoylamino)butyryl]-[His1,Glu14,His17]-pramlintide (peptide)
peptide: {C18 diacid-γGlu}-HCNTATCATQRLAEFLHHSSNNFGPILPPTNVGSNTY-NH2
modifications: disulfide 2-7; not fully specified; printed as N-alpha-[(S)-4-Carboxy-4-(17-carboxyheptadecanoylamino)butyryl]-[His1,Glu14,His17]-pramlintide
B7: N-alpha-[(S)-4-Carboxy-4-(19-carboxynonadecanoylamino)butyryl]-[Glu14,His17,His35]-pramlintide (peptide)
peptide: {C20 diacid-γGlu}-KCNTATCATQRLAEFLHHSSNNFGPILPPTNVGSHTY-NH2
modifications: disulfide 2-7
SMILES: CC[C@H](C)[C@H](NC(=O)[C@@H]1CCCN1C(=O)CNC(=O)[C@H](Cc1ccccc1)NC(=O)[C@H](CC(N)=O)NC(=O)[C@H](CC(N)=O)NC(=O)[C@H](CO)NC(=O)[C@H](CO)NC(=O)[C@H](Cc1c[nH]cn1)NC(=O)[C@H](Cc1c[nH]cn1)NC(=O)[C@H](CC(C)C)NC(=O)[C@H](Cc1ccccc1)NC(=O)[C@H](CCC(=O)O)NC(=O)[C@H](C)NC(=O)[C@H](CC(C)C)NC(=O)[C@H](CCCNC(=N)N)NC(=O)[C@H](CCC(N)=O)NC(=O)[C@@H](NC(=O)[C@H](C)NC(=O)[C@@H]1CSSC[C@H](NC(=O)[C@H](CCCCN)NC(=O)CC[C@H](NC(=O)CCCCCCCCCCCCCCCCCCC(=O)O)C(=O)O)C(=O)N[C@@H](CC(N)=O)C(=O)N[C@@H]([C@@H](C)O)C(=O)N[C@@H](C)C(=O)N[C@@H]([C@@H](C)O)C(=O)N1)[C@@H](C)O)C(=O)N[C@@H](CC(C)C)C(=O)N1CCC[C@H]1C(=O)N1CCC[C@H]1C(=O)N[C@H](C(=O)N[C@@H](CC(N)=O)C(=O)N[C@H](C(=O)NCC(=O)N[C@@H](CO)C(=O)N[C@@H](Cc1c[nH]cn1)C(=O)N[C@H](C(=O)N[C@@H](Cc1ccc(O)cc1)C(N)=O)[C@@H](C)O)C(C)C)[C@@H](C)O

molecular target: T1, human amylin 3(a) receptor (human …); assay: cell-based or functional assay

Binder	Amylin receptor human EC50 [pM]
B1	116
B2	62
B3	111
B4	46.9
B5	299
B6	42.5
B7	152

molecular target: T2, rat calcitonin (a) receptor; assay: cell-based or functional assay

Binder	CTa receptor rat EC50 [pM]
B1	2230
B2	76
B3	2840
B4	433
B5	4970
B6	375
B7	673

molecular target: T3, rat amylin 3(a) receptor (rat …); assay: cell-based or functional assay

Binder	Amylin receptor rat EC50 [pM]
B1	63
B2	160
B3	510
B4	122
B5	643
B6	15
B7	262

molecular target: T4, human calcitonin (a) receptor; assay: cell-based or functional assay

Binder	CTa receptor human EC50 [pM]
B1	606
B2	53.7
B3	387
B4	79.2
B5	352
B6	112
B7	163
